In US20250011468A1 (Novo Nordisk, published 2025):
Positions count from the first letter of the chain named.

B1: mAb5-0057 (bispecific, mAb1-8768/mAb1-6723) (bispecific antibody, V domains shown)
VH 1: EVQLVESGGGLVQPGRSLKLSCAASGFTFHDYAMHWVRQVPGKGLEWVSGISWRGDIIGYVDSVKGRFTISRDNAKNSLYLQLNSLRAEDTALYYCVKSYGSGSFYNAFDSWGQGTLVTVSS
VL 1: DIQMTQSPSTLSASAGDRVTITCRASQSISSWLAWYQQKPGKAPKFLIYKASRLDRGTPSRFSGSGSGTEFSLTISSLQPDDFATYYCLEYSSYIRTFGQGTKVEIK
VH 2: EVQLVQSGAEVKKPGESLRISCKGSGYSFTTSWIVWVRQMPGKGLEWMGMIDPSDSFTSYSPSFQGHVTISADKSISTAYLQWSSLKASDTAMYYCARLHYYHSEEFDVWGQGTLVTVSS
VL 2: EIVLTQSPGTLSLSPGERATLSCRASQSVSSSYLAWYQQKPGQAPRLLIYGASSRARGIPDRFSGSGSGTDFTLTISRLEPEDFAVYYCQQFGSSRLFTFGQGTKLEIK
B2: mAb4-9578 (monovalent one-armed version of mAb1-7977) (antibody, V domains shown)
VH: B1 VH 1 with T28R, H30D, V40A, D56A, I57Q, V61A, V97A
VL: B1 VL 1 with A15V, S28K, T58V, S92R
B3: mAb5-0161 (monovalent one-armed version of mAb1-8785) (antibody, V domains shown)
VH: B1 VH 1 with A75K
VL: B1 VL 1 with T58V
B4: mAb5-1270 (monovalent one-armed version of mAb1-9016) (antibody, V domains shown)
VH: B1 VH 1 with H30D, I58G
VL: B1 VL 1 with D55E, T58V
B5: mAb5-0514 (monovalent one-armed version of mAb1-8543) (antibody, V domains shown)
VH: B1 VH 1 with G26K, T28R, H30D, A75E
VL: B1 VL 1 with D55E, G57D, T58V, S92R
B6: mAb5-0152 (monovalent one-armed version of mAb1-8782) (antibody, V domains shown)
VH: B1 VH 1 with I58T
VL: B1 VL 1 with T58V
B7: mAb5-1257 (monovalent one-armed version of mAb1-9002) (antibody, V domains shown)
VH: B1 VH 1 with G26K, H30D
VL: B1 VL 1 with D55E, T58V
B8: mAb5-0900 (monovalent one-armed version of mAb1-8459) (antibody, V domains shown)
VH: B1 VH 1 with H30D, D62K, A88I
VL: B1 VL 1 with Q27K, S52E, D55E, T58V
B9: mAb5-2035 (monovalent one-armed version of mAb1-9285) (antibody, V domains shown)
VH: B1 VH 1 with H30D, D62K, A88I
VL: B1 VL 1 with Q27K, D55E, T58V
B10: mAb5-1528 (monovalent one-armed version of mAb1-9058) (antibody, V domains shown)
VH: B1 VH 1
VL: B1 VL 1 with T22S, T58V, S72T, S92N
B11: mAb5-0658 (monovalent one-armed version of mAb1-8679) (antibody, V domains shown)
VH: B1 VH 1 with H30D, D62K
VL: B1 VL 1 with A15V, Q27K, S30K, D55E, T58V
B12: mAb5-0908 (monovalent one-armed version of mAb1-8467) (antibody, V domains shown)
VH: B1 VH 1 with G26K, T28R, H30D, A75E
VL: B1 VL 1 with Q27K, D55E, T58V
B13: mAb5-0144 (monovalent one-armed version of mAb1-8780) (antibody, V domains shown)
VH: B1 VH 1 with I58K
VL: B1 VL 1 with T58V
B14: mAb5-1695 (monovalent one-armed version of mAb1-9134) (antibody, V domains shown)
VH: B1 VH 1 with H30D, R54K
VL: B1 VL 1 with S31E, T58V
B15: mAb5-1263 (monovalent one-armed version of mAb1-9015) (antibody, V domains shown)
VH: B1 VH 1 with H30D, I58K
VL: B1 VL 1 with D55E, T58V
B16: mAb4-3505 (monovalent one-armed version of mAb1-5797) (antibody, V domains shown)
VH: EVQLVQSGAEVKKPGESLRISCKGSGYRFTSYWIGWVRQMPGKGLEWMGMIDPTDSYTDYGPSFHGHVTISADKSISTAYLQWSSLKASDTAMYYCARMRIMSGAFDIWGQGTMVTVSS
VL: DIVMTQSPLSLPVTPGEPASISCRSSQSLLHSTWYNYLNWYLQKPGQSPQLLIYLGSRRASGVPDRFSGSGSGTDFTLKISRVEAEDVGVYYCMQVLHIPYTFGQGTKLEIK
B17: mAb4-3461 (monovalent one-armed version of mAb1-5754) (antibody, V domains shown)
VH: B16 VH with R28S, T30R, S31P, T54S, H65E, M99V, M102R, S103A
VL: B16 VL with S28R, W34G, S57K, R58N
B18: mAb4-5355 (monovalent one-armed version of mAb1-6584) (antibody, V domains shown)
VH: B16 VH with R28S, T30R, S31P, T54S, H65R, M99V, M102R, S103A
VL: B16 VL with S57K, R58N
B19: mAb4-5342 (monovalent one-armed version of mAb1-6586) (antibody, V domains shown)
VH: B16 VH
VL: B16 VL with S57K, R58N
B20: mAb4-5337 (monovalent one-armed version of mAb1-6566) (antibody, V domains shown)
VH: B16 VH with R28S, T30R, S31P, T54S, H65E, M99V, M102R, S103A
VL: B16 VL with S32R, S57R, R58N
B21: mAb4-3503 (monovalent one-armed version of mAb1-5796) (antibody, V domains shown)
VH: B16 VH with R28S, T30R, S31P, T54S, M99V
VL: B16 VL with S57K, R58N
B22: mAb4-5357 (monovalent one-armed version of mAb1-6590) (antibody, V domains shown)
VH: B16 VH with R28S, T30R, S31P, T54S, H65E, M99V, M102R, S103A
VL: B16 VL
B23: mAb4-3486 (monovalent one-armed version of mAb1-5781) (antibody, V domains shown)
VH: B16 VH with R28S, T30K, S31P, T54S, H65R, M99V, M102R, S103A
VL: B16 VL with S32R, S57R, R58N
B24: mAb4-5375 (monovalent one-armed version of mAb1-6609) (antibody, V domains shown)
VH: B16 VH with S31P, H65R, M99V, M102R
VL: B16 VL with R58N, V96A
B25: mAb4-5344 (monovalent one-armed version of mAb1-6592) (antibody, V domains shown)
VH: B16 VH with R28S, T30R, S31P, T54S, H65R, M99V, M102R, S103A
VL: B16 VL
B26: mAb4-3490 (monovalent one-armed version of mAb1-5783) (antibody, V domains shown)
VH: B16 VH with R28S, T30R, S31P, T54S, H65R, M99V, M102R, S103A
VL: B16 VL with S32R, S57R, R58N
B27: mAb4-5368 (monovalent one-armed version of mAb1-6606) (antibody, V domains shown)
VH: B16 VH with R28S, T30R, S31P, T54S, H65E, M99V, M102R, S103A
VL: B16 VL with R58N, V96A
B28: mAb4-5347 (monovalent one-armed version of mAb1-6582) (antibody, V domains shown)
VH: B16 VH with R28S, T30R, S31P, T54S, H65E, M99V, M102R, S103A
VL: B16 VL with S57K, R58N

Each binder was assayed against T1, human plasma-derived FIXa (Haematologic Technologies Inc) (human, UniProt P00740 47-191; P00740 227-461) (assay: cell-based or functional assay).
T1 sequence (P00740 47-191, chain 1 of 2): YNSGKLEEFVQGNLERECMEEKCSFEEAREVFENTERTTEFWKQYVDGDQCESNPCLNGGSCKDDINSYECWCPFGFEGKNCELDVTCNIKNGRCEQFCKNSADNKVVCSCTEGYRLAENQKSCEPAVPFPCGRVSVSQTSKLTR
T1 sequence (P00740 227-461, chain 2 of 2): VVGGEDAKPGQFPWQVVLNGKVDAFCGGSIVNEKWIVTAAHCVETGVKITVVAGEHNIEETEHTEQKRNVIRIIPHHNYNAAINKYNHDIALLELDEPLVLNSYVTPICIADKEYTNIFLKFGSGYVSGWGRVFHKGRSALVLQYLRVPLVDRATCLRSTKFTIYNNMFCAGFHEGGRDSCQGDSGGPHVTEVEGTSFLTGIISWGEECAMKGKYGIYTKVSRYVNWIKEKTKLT

Maximum stimulation (fold), at 1218 nM BiAb | Binder
10800 fold | B1

Biological target: T1, human plasma-derived FIXa (Haematologic …)
Experiment: cell-based or functional assay
Remark: another data set of the same source

Stimulation index at 800 nM OA antibody | Stimulation index at 1600 nM OA antibody | Stimulation index at 474 nM OA antibody | Stimulation index at 1478 nM OA antibody | Stimulation index at 204 nM OA antibody | Stimulation index at 900 nM OA antibody | Stimulation index at 564 nM OA antibody | Stimulation index at 264 nM OA antibody | Binder
850 fold |  |  |  |  |  |  |  | B2
621 fold |  |  |  |  |  |  |  | B3
 | 4320 fold |  |  |  |  |  |  | B4
 | 283 fold |  |  |  |  |  |  | B5
 | 417 fold |  |  |  |  |  |  | B6
567 fold |  |  |  |  |  |  |  | B7
 | 799 fold |  |  |  |  |  |  | B8
732 fold |  |  |  |  |  |  |  | B9
 | 531 fold |  |  |  |  |  |  | B10
 | 918 fold |  |  |  |  |  |  | B11
 | 1020 fold |  |  |  |  |  |  | B12
 | 1650 fold |  |  |  |  |  |  | B13
 | 320 fold |  |  |  |  |  |  | B14
 | 1330 fold |  |  |  |  |  |  | B15
 |  | 382 fold |  |  |  |  |  | B16
 |  |  | 615 fold |  |  |  |  | B17
580 fold |  |  |  |  |  |  |  | B18
94 fold |  |  |  |  |  |  |  | B19
 |  |  |  | 690 fold |  |  |  | B20
 |  |  |  |  | 239 fold |  |  | B21
1290 fold |  |  |  |  |  |  |  | B22
 |  |  |  |  |  | 1220 fold |  | B23
94 fold |  |  |  |  |  |  |  | B24
916 fold |  |  |  |  |  |  |  | B25
 |  |  |  |  |  |  | 1040 fold | B26
133 fold |  |  |  |  |  |  |  | B27
692 fold |  |  |  |  |  |  |  | B28
